Results published in article PMC9095706, “TMEM16 scramblases thin the membrane to enable lipid scrambling” (Nature Communications, 2022).

What was measured:
[1] = target: afTMEM16 scramblase from Aspergillus fumigatus (Aspergillus fumigatus); test: cryo-EM structure; afTMEM16 reconstituted in lipid nanodiscs (MSP1E3 or MSP2N2; C14, C18 or C22 lipids, 7 PC:3 PG), 50 mM HEPES pH 8.0, 150 mM KCl with 0.5 mM CaCl2 or 5 mM EDTA; homodimer, C2 symmetric reconstructions
afTMEM16 = target: T1, afTMEM16 (Aspergillus fumigatus, UniProt Q4WA18); test: cryo-EM structure ([…] Å) in MSP1E3 nanodiscs; format: binding; details: 0.5 mM Ca2+; 7:3 DOPC:DOPG nanodisc; lipids D4 and D5 built as PG, near dimer interface and lipid pathway; models started from POPG (PGW) and truncated to density
T1 construct: gene AFUA_4G02970; expressed in S. cerevisiae from pDDGFP2, His tag removed with TEV protease, digitonin-purified homodimer, in MSP1E3 nanodiscs or proteoliposomes
T1 sequence (Q4WA18 1-735): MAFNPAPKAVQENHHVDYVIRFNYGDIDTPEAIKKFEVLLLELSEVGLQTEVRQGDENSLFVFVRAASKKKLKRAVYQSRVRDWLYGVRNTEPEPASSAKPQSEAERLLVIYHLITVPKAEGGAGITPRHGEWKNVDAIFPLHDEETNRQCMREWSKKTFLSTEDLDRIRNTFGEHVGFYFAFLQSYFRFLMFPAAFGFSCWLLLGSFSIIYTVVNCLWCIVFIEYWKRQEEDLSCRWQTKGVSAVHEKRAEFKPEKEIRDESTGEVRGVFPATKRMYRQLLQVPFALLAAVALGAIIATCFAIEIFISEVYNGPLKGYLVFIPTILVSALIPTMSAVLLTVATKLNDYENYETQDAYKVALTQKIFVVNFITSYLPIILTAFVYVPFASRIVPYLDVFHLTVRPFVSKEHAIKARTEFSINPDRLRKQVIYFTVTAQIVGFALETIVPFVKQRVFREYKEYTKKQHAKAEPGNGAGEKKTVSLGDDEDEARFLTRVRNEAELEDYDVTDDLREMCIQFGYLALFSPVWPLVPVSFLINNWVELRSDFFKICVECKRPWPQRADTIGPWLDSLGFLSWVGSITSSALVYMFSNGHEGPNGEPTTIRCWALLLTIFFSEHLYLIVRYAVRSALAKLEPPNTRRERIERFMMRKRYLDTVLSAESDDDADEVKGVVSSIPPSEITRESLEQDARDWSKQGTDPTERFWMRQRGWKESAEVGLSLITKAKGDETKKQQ

Row | stoichiometry N [1] | Compound | cryo-EM structure (2.3 Å) in MSP1E3 nanodiscs (afTMEM16)
1 | 2 | afTMEM16 scramblase from Aspergillus fumigatus (natural protein) | –
2 | – | CCCCCCCC/C=C\CCCCCCCC(=O)OC[C@H](COP(=O)(O)OCC(O)CO)OC(=O)CCCCCCC/C=C\CCCCCCCC (mixture of isomers) [1,2-dioleoyl-sn-glycero-3-phospho-(1′-rac-glycerol)] | The downward slope of the OL starts at D5, a well-defined PG lipid
